# Results reported in patent US20100166708.
# T1: tumor necrosis factor receptor (TNFR)-associated factor 1, Q13077
# T1 chain: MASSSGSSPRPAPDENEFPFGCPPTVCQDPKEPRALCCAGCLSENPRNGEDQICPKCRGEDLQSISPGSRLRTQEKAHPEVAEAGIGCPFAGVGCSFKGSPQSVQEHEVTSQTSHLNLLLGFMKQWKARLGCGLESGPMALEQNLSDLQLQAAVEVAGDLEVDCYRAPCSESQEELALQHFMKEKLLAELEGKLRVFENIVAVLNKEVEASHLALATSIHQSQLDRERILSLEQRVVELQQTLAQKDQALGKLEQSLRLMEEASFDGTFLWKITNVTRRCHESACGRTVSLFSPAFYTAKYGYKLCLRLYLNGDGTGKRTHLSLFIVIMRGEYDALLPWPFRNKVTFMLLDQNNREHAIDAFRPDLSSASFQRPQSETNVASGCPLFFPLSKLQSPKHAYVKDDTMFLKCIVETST
# B1: caspase 8 (protein)
# chain: MDFSRNLYDIGEQLDSEDLASLKFLSLDYIPQRKQEPIKDALMLFQRLQEKRMLEESNLSFLKELLFRINRLDLLITYLNTRKEEMERELQTPGRAQISAYRVMLYQISEEVSRSELRSFKFLLQEEISKCKLDDDMNLLDIFIEMEKRVILGEGKLDILKRVCAQINKSLLKIINDYEEFSKERSSSLEGSPDEFSNGEELCGVMTISDSPREQDSESQTLDKVYQMKSKPRGYCLIINNHNFAKAREKVPKLHSIRDRNGTHLDAGALTTTFEELHFEIKPHDDCTVEQIYEILKIYQLMDHSNMDCFICCILSHGDKGIIYGTDGQEAPIYELTSQFTGLKCPSLAGKPKVFFIQACQGDNYQKGIPVETDSEEQPYLEMDLSSPQTRYIPDEADFLLGMATVNNCVSYRNPAEGTWYIQSLCQSLRERCPRGDDILTILTEVNYEVSNKDDKKNMGKQMPQPTFTLRKKLVFPSD
# Molecular target: T1, tumor necrosis factor receptor …
protein,measurement,value
B1,"cleavage of TRAF1 to N-terminal TRAF1 (western blot, normal human keratinocytes)","The overexpression of TRIF caused caspase 8-dependent cleavage of TRAF1 to release N-terminal TRAF1 (N-TRAF1) (FIG. 14e), which was prevented by caspase 8 inhibitor (FIG. 14f)"
